B1: 199-299: C-terminal fragment consisting of amino acids 199-299 of human ApoE (SEQ ID NO: 2) (protein)
chain: AGQPLQERAQAWGERLRARMEEMGSRTRDRLDEVKEQVAEVRAKLEEQAQQIRLQAEAFQARLKSWFEPLVEDMQRQWAGLVEKVQAAVGTSAAPVPSDNH
B2: 198-299: C-terminal fragment consisting of amino acids 198-299 of human ApoE (SEQ ID NO: 3) (protein)
chain: LAGQPLQERAQAWGERLRARMEEMGSRTRDRLDEVKEQVAEVRAKLEEQAQQIRLQAEAFQARLKSWFEPLVEDMQRQWAGLVEKVQAAVGTSAAPVPSDNH
B3: 200-299: C-terminal fragment consisting of amino acids 200-299 of human ApoE (SEQ ID NO: 1) (protein)
chain: GQPLQERAQAWGERLRARMEEMGSRTRDRLDEVKEQVAEVRAKLEEQAQQIRLQAEAFQARLKSWFEPLVEDMQRQWAGLVEKVQAAVGTSAAPVPSDNH

How the values were obtained:
[1] = tested on: neurotoxic 12 kDa ApoE fragment; assay: Western blot analysis of 12 kDa ApoE fragment production in rat hippocampal neurons expressing full-length human ApoE4; type: cell-based; settings: rat hippocampal neurons infected with AAV-DJ full-length human ApoE4; treated at 11 DIV, collected at 14 DIV; concentration dependent; FIG. 14A
Description: (§1) Cell culture: The dissected hippocampi from fetuses obtained on embryonic day (E) 18 from timed pregnant Wistar rats (Charles River Laboratories) were digested using trypsinization and mechanical dissociation. The dissociated neurons were seeded at 1.0×10^5 cells/well in 24-well plate (Falcon). Infection of AAV-DJ with full-length human ApoE4 was performed at 7 days in vitro (DIV). 4-{4-[2-(3-methyl-4-oxo-3,4-dihydro-phthalazin-1-yl)-acetylamido]-benzyl}-piperazine-1-carboxylic acid tert-butyl ester (hereinafter also referred to as PH-002) (Merck) was treated at 4 days after infection (11 DIV). Sample collection for western blot and cytotoxicity analysis was performed at 7 days after infection (14 DIV).
Western blot analysis: Cells were lysed by RIPA buffer (50 mM Tris-HCl pH 7.6, 5 mM EDTA, 1 mM EGTA, 1% NP40, 0.25% sodium deoxycholate, 0.1 M NaCl, 0.5 mM PMSF) containing complete (EDTA-free) protease inhibitor cocktail (Roche) and PhosSTOP protein phosphatase inhibitor (Sigma), and sonicated. Sample Buffer Solution with Reducing Reagent (6×) (Nacalai Tesque) was added before SDS-PAGE. For SDS-PAGE, XV PANTERA MP Gel (DRC) 15% was used. For transfer, Trans-Blot Turbo (BIO-RAD) was used. For immunoblotting, iBind Western Systems (ThermoFisher Scientific) was used together with anti-ApoE PA5-27088 antibody (ThermoFisher Scientific). For detection, Fusion FX7 (Vilber Lourmat) was used.

[2] = tested on: rat hippocampal neurons; assay: CytoTox-Glo Cytotoxicity Assay of treated rat hippocampal neurons; type: cell-based; settings: conditioned medium of treated rat hippocampal neurons, 14 DIV; FIG. 14B
Description: as §1
Cytotoxicity analysis: Cytotoxicity of treated compound was evaluated by CytoTox-GIo™ Cytotoxicity Assay (Promega). In brief, 50 uL of conditioned medium and 50 uL of prepared CytoTox-GIo™ Cytotoxicity Assay reagent were mixed in 96-well white-walled plate (Sumitomo Bakelite). After incubation at room temperature for 15 min, luminescence was measured by SpectraMax iD5 (Molecular Devices).

[3] = literature, Chang et al.; cited from earlier work
[4] = tested on: Neuro2A cells; assay: Mitochondrial respiration measurement (spare respiratory capacity) in vector-transfected Neuro2A cells; type: cell-based; settings: Neuro2A cells expressing the fragment; FCCP respiration minus basal respiration; FIG. 13A
Description: Cell culture: Neuro2A cells (ATCC) were seeded at 5.0×10^4 cells/well in a 24 well plate (Falcon) and cultured in D-MEM High Glucose (WAKO) containing 10% fetal bovine serum. Transfection of pAAV-CMV vectors encoding human ApoE4 (full-length) or the identified ApoE fragments (198-299, 199-299, 200-299) was done using Lipofectamine LTX and Plus Reagent (Invitrogen) on 1 day after seeding. 2 days later, vector-transfected cells were collected for Western blot analysis or seeded again at 2.0×10^4 cells/well in a Seahorse XF96 cell culture microplate (Agilent Technologies) 4 hours before mitochondrial respiration measurement.
(§2) Mitochondrial respiration measurement: Real-time measurement of oxygen consumption rates (OCR) was performed using an Extracellular Flux Analyzer XFe96 (Agilent Technologies). Before measurement, the culture medium was replaced by 37° C. pre-warmed XF Base Medium (Agilent Technologies) containing 10 mM sodium pyruvate (Sigma), 10 mM D-glucose (Sigma), 2 mM glutamine (Sigma). The pH of the measurement medium was adjusted to 7.4. The culture plates were incubated at 37° C. for 60 min prior to the assay. For analysis of mitochondrial function, XF Cell Mito Stress Test Kit (Agilent Technologies) was used. Following measurement of basal OCR, mitochondrial complex inhibitors were injected sequentially into each cell. The inhibitors were used at the following concentrations: oligomycin 1 μM; carbonyl cyanide 4-(trifluoromethoxy)phenylhydrazone (FCCP) 0.25 μM for Neuro2A cells, 2 μM for rat hippocampal neurons; rotenone/antimycin A 0.5 μM. OCR values were automatically calculated, recorded and plotted by the XFe96 software. Spare respiratory capacity was measured as (FCCP respiration—basal respiration).

[5] = tested on: rat primary hippocampal neurons; assay: Mitochondrial respiration measurement (spare respiratory capacity) in AAV6-infected rat hippocampal neurons; type: cell-based; settings: 7 days after AAV6 infection (14 DIV), FIG. 13B
Description: For assays using rat hippocampal neurons, the dissected hippocampi from fetuses obtained on embryonic day (E) 18 from timed pregnant Wistar rats (Charles River Laboratories) were digested using trypsinization and mechanical dissociation. The dissociated neurons were seeded at 1.5×10^4 cells/well in Seahorse XF96 cell culture microplate (Agilent Technologies) for mitochondrial respiration measurement or 1.0×10^5 cells/well in 24-well plate (Falcon) for Western blot analysis. Infection of AAV6 with full-length human ApoE4 or identified ApoE fragments (198-299, 199-299, 200-299) was performed at 7 days in vitro (DIV). Measurement of mitochondrial respiration or sample collection for Western blot analysis was performed at 7 days after infection (14 DIV).
as §2

[6] = tested on: Aβ; settings: literature, Pillot et al.; artificially-generated fragment; cited from earlier work

Molecule	spare respiratory capacity [4]	spare respiratory capacity [5]	other results
Cn1nc(CC(=O)Nc2ccc(CN3CCN(C(=O)OC(C)(C)C)CC3)cc2)c2ccccc2c1=O [PH-002, 4-{4-[2-(3-methyl-4-oxo-3,4-dihydro-phthalazin-1-yl)-acetylamido]-benzyl}-piperazine-1-carboxylic acid tert-butyl ester]			amount of neurotoxic 12 kDa ApoE fragment [1]: reduction in the amount of neurotoxic 12 kDa ApoE fragment; cytotoxicity [2]: no cytotoxicity
ApoE4(1-299): full-length ApoE4			mitochondrial dysfunction and neurotoxicity [3]: did not bring about these effects
B1	reduction in spare respiratory capacity	reduction in spare respiratory capacity	
B2	reduction in spare respiratory capacity	reduction in spare respiratory capacity	
B3	reduction in spare respiratory capacity	reduction in spare respiratory capacity	inhibition of the fusogenic properties of Aβ [6]: able to inhibit the fusogenic properties of Aβ

From patent US20220251171A1, “APOLIPOPROTEIN E FRAGMENTS” (EISAI R&D MANAGEMENT CO., LTD., priority 2019, published 2022)
